{
  "source": "paper PMC9177958",
  "about": "“Structures of nonsense-mediated mRNA decay factors UPF3B and UPF3A in complex with UPF2 reveal molecular basis for competitive binding and for neurodevelopmental disorder-causing mutation” (Nucleic Acids Research, 2022)",
  "binders": {"B1": {"name": "UPF3B-WT (residues 1–470) (natural protein, human, UniProt Q9BZI7-2 1-470, looked up)", "chain": "MKEEKEHRPKEKRVTLLTPAGATGSGGGTSGDSSKGEDKQDRNKEKKEALSKVVIRRLPPTLTKEQLQEHLQPMPEHDYFEFFSNDTSLYPHMYARAYINFKNQEDIILFRDRFDGYVFLDNKGQEYPAIVEFAPFQKAAKKKTKKRDTKVGTIDDDPEYRKFLESYATDNEKMTSTPETLLEEIEAKNRELIAKKTTPLLSFLKNKQRMREEKREERRRREIERKRQREEERRKWKEEEKRKRKDIEKLKKIDRIPERDKLKDEPKIKLLKKPEKGDEKELDKREKAKKLDKENLSDERASGQSCTLPKRSDSELKDEKPKRPEDESGRDYREREREYERDQERILRERERLKRQEEERRRQKERYEKEKTFKRKEEEMKKEKDTLRDKGKKAESTESIGSSEKTEKKEEVVKRDRIRNKDRPAMQLYQPGARSRNRLCPPDDSTKSGDSAAERKQESGISHRKEGGEE", "notes": "UPF3B, human, isoform 2 (the predominant form found in cells), residues 1-470, printed length 470; also called full-length UPF3B; source: insect cells (MultiBac), purified (Ni-NTA, TEV, reverse IMAC, ion exchange)"}, "B2": {"name": "24mer ssRNA (ssRNA)", "RNA": "CACUGAUCUGACGCUGCACCUGGG"}, "B3": {"name": "24mer dsRNA (dsRNA)", "RNA 1": "CCCUGAGCUGACGCAGCACCUGGG", "RNA 2": "CCCAGGUGCUGCGUCAGCUCAGGG"}},
  "key": {"[1]": {"molecular_target": "T1, UPF2L (120–1227) (UniProt Q9HAU5 120-1227)", "T1 construct": "UPF2, larger construct with wildtype activity, amino acids 120-1227; source: E. coli BL21 Rosetta2(DE3), purified (Ni-NTA, TEV, reverse IMAC, ion exchange)", "T1 sequence (looked up)": "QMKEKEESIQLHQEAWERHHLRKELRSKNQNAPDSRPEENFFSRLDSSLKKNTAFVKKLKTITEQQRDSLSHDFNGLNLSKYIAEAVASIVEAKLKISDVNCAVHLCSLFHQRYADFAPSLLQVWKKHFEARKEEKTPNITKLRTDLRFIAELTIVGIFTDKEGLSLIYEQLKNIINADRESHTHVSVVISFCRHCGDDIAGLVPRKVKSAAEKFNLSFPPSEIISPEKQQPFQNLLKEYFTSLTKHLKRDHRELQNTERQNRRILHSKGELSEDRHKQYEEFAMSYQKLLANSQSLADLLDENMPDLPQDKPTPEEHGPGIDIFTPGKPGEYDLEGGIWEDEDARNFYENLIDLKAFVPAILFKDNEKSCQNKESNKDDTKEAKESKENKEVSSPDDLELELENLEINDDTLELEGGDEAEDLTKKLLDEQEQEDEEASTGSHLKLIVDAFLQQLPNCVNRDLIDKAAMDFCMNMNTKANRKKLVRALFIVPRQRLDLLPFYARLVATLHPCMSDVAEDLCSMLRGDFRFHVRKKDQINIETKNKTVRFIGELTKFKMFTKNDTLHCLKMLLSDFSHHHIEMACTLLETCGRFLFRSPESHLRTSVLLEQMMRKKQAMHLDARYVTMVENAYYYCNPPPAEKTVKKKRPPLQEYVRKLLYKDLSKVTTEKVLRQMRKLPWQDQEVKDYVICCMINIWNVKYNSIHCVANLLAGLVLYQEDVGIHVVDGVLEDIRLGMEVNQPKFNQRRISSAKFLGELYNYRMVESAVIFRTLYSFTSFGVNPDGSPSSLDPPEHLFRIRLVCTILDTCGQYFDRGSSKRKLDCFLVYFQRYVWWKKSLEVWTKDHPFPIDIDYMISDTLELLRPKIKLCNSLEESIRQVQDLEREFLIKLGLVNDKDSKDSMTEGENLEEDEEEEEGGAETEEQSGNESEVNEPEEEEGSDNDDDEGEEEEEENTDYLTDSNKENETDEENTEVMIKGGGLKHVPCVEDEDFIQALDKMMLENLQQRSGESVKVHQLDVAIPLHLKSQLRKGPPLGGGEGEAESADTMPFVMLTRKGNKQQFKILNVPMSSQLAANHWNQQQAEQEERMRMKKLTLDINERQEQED", "experiment": "native gel or EMSA; 250 nM HEX-labelled ssRNA with 2 μM UPF3B-WT or UPF2L and increasing ratios of the other; on ice 1 h; 25 mM HEPES pH 7.45, 2 mM MgCl2, 150 mM NaCl, 0.5 mM TCEP; 4–20% Tris-Glycine native gel, Coomassie", "conditions": "both partners purified"}, "[2]": {"molecular_target": "T2, UPF3B-WT (human, UniProt Q9BZI7-2 1-470)", "T2 sequence": "B1 chain", "experiment": "fluorescence anisotropy; FA: 5 nM probe, 150 mM NaCl, 25 mM HEPES pH 7.45, 1 mM TCEP, 20 C; EMSA: 250 nM probe, 25 mM HEPES pH 7.45, 2 mM MgCl2, 150 mM NaCl, 0.5 mM TCEP, on ice", "conditions": "protein: recombinant, tags: 6xHis removed by TEV"}, "[3]": {"molecular_target": "UPF2-MIF4GIII (UniProt Q9HAU5 761-1054)", "experiment": "fluorescence anisotropy; FA: 5 nM probe, 150 mM NaCl, 25 mM HEPES pH 7.45, 1 mM TCEP, 20 C; EMSA: 250 nM probe, 25 mM HEPES pH 7.45, 2 mM MgCl2, 150 mM NaCl, 0.5 mM TCEP, on ice", "conditions": "protein: recombinant; tags: 6xHis removed by TEV; label: 5' HEX; single strand; 24-mer hairpin RNA"}, "[4]": {"molecular_target": "UPF3B-41-143 (RRM-L);UPF2-MIF4GIII (human;human?, UniProt Q9BZI7;Q9HAU5 41-143;761-1054, |)", "experiment": "fluorescence anisotropy; FA: 5 nM probe, 150 mM NaCl, 25 mM HEPES pH 7.45, 1 mM TCEP, 20 C; EMSA: 250 nM probe, 25 mM HEPES pH 7.45, 2 mM MgCl2, 150 mM NaCl, 0.5 mM TCEP, on ice", "conditions": "protein: recombinant;recombinant; tags: 6xHis removed by TEV;6xHis removed by TEV; copies: 1;1; label: 5' HEX; single strand; 24-mer hairpin RNA"}, "[5]": {"molecular_target": "T3, UPF3B-146-417 (human, UniProt Q9BZI7-2 146-417)", "T3 sequence": "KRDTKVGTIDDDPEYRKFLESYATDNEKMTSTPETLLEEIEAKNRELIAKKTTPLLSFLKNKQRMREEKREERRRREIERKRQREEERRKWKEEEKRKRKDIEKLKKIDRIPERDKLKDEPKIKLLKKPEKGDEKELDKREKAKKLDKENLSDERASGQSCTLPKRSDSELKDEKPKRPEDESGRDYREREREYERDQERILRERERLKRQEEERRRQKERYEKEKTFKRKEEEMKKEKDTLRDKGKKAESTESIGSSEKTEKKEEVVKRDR", "experiment": "fluorescence anisotropy; FA: 5 nM probe, 150 mM NaCl, 25 mM HEPES pH 7.45, 1 mM TCEP, 20 C; EMSA: 250 nM probe, 25 mM HEPES pH 7.45, 2 mM MgCl2, 150 mM NaCl, 0.5 mM TCEP, on ice", "conditions": "protein: recombinant; tags: 6xHis removed by TEV; label: 5' HEX on strand 1; blunt"}, "[6]": {"molecular_target": "T4, UPF3B-146-256 (human, UniProt Q9BZI7 146-256)", "T4 sequence": "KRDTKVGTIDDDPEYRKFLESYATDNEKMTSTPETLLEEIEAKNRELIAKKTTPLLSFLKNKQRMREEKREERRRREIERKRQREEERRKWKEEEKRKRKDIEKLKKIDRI", "experiment": "fluorescence anisotropy; FA: 5 nM probe, 150 mM NaCl, 25 mM HEPES pH 7.45, 1 mM TCEP, 20 C; EMSA: 250 nM probe, 25 mM HEPES pH 7.45, 2 mM MgCl2, 150 mM NaCl, 0.5 mM TCEP, on ice", "conditions": "protein: recombinant; tags: 6xHis removed by TEV; label: 5' HEX on strand 1; blunt"}, "[7]": {"molecular_target": "T5, UPF3B-41-262 (human, UniProt Q9BZI7 41-262)", "T5 sequence": "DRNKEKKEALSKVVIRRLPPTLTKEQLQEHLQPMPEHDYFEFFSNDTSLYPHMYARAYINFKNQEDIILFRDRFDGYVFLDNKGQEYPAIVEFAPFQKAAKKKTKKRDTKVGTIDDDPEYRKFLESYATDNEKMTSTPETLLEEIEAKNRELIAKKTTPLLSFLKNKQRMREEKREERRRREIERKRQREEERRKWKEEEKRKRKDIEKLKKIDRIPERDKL", "experiment": "fluorescence anisotropy; FA: 5 nM probe, 150 mM NaCl, 25 mM HEPES pH 7.45, 1 mM TCEP, 20 C; EMSA: 250 nM probe, 25 mM HEPES pH 7.45, 2 mM MgCl2, 150 mM NaCl, 0.5 mM TCEP, on ice", "conditions": "protein: recombinant; tags: 6xHis removed by TEV; label: 5' HEX on strand 1; blunt"}, "[8]": {"molecular_target": "T6, UPF3B-41-214 (human, UniProt Q9BZI7 41-214)", "T6 sequence": "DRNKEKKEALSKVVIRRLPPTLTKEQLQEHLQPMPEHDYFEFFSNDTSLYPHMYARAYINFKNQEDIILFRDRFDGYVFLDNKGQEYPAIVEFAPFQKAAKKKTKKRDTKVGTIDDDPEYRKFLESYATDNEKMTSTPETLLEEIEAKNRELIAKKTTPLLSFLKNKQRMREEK", "experiment": "fluorescence anisotropy; FA: 5 nM probe, 150 mM NaCl, 25 mM HEPES pH 7.45, 1 mM TCEP, 20 C; EMSA: 250 nM probe, 25 mM HEPES pH 7.45, 2 mM MgCl2, 150 mM NaCl, 0.5 mM TCEP, on ice", "conditions": "protein: recombinant; tags: 6xHis removed by TEV; label: 5' HEX on strand 1; blunt"}, "[9]": {"molecular_target": "T7, UPF3B-41-143 (RRM-L) (human, UniProt Q9BZI7 41-143)", "T7 sequence": "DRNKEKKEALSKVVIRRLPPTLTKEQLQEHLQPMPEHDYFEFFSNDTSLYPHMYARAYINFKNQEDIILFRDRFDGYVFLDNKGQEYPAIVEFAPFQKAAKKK", "experiment": "fluorescence anisotropy; FA: 5 nM probe, 150 mM NaCl, 25 mM HEPES pH 7.45, 1 mM TCEP, 20 C; EMSA: 250 nM probe, 25 mM HEPES pH 7.45, 2 mM MgCl2, 150 mM NaCl, 0.5 mM TCEP, on ice", "conditions": "protein: recombinant; tags: 6xHis removed by TEV; label: 5' HEX on strand 1; blunt"}},
  "data": [
    {"binder": "B1", "values": [
      {"measurement": "binding result", "setting": "[1]", "result": "binds"}
    ]},
    {"binder": "B2", "values": [
      {"measurement": "Kd", "setting": "[2]; label: 5' HEX, single strand, 24-mer hairpin RNA", "result": 30, "unit": "nM"},
      {"measurement": "Kd", "setting": "[3]", "result": "~700", "unit": "nM"},
      {"measurement": "Kd", "setting": "[4]", "result": 620, "unit": "nM"}
    ]},
    {"binder": "B3", "values": [
      {"measurement": "Kd", "setting": "[2]; label: 5' HEX on strand 1, blunt", "result": 15, "unit": "nM"},
      {"measurement": "Kd", "setting": "[5]", "result": 280, "unit": "nM"},
      {"measurement": "Kd", "setting": "[6]", "result": 1800, "unit": "nM"},
      {"measurement": "Kd", "setting": "[7]", "result": 37, "unit": "nM"},
      {"measurement": "Kd", "setting": "[8]", "result": 1200, "unit": "nM"},
      {"measurement": "Kd", "setting": "[9]", "result": 9200, "unit": "nM"}
    ]}
  ]
}
